Patent EP4745156A1
Positions count from the first letter of the chain named.

B1: 6465-mHvKv-canIgGB (antibody, V domains shown)
VH: EVQLQQSGAELVRPGASVRLSCKASGYSFTNYYLYWVKQRPGQGLEWIGELNPRNGGTNLNAKFKTKATLTVDKSSNTAYMRLSSLTSEDSAVYYCTRGGTTVVVRDVMDFWGQGTSVTVSS
VL: DIELTQSPASLAVSLGQRATISCRASESVDSYGNSFMHWYQQKPGQPPKLLIYRASNLESGIPARFSGSGSRTDFTLTINPVEADDVATYYCQQSNEDPYTFGGGTKLEIKR
B2: 6465-H3K3-canIgGB (antibody, V domains shown)
VH: EVQLVESGGDLVKPGGSLRLSCVASGYSFTNYYLYWVRQAPGKGLEWVAELNPRNGGTNLNAKFKTRFTISRDNAKNMAYLQMNSLRAEDTAVYYCTRGGTTVVVRDVMDFWGQGTLVTVSS
VL: DIVMTQTPLSLSVSPGEPASISCRASESVDSYGNSFMHWYRQKPGQSPQLLIYRASNLESGVPDRFSGSGSGTDFTLRISRVEADDAGVYYCQQSNEDPYTFGQGTKLEIKR
B3: 7475-mHvKv-canIgGB (antibody, V domains shown)
VH: EVKLVESGEGLVKPGGSLKLSCAASGFTFSSYAMSWVRQTPEKRLEWVAYISNGGDYIFYADTVKGRFTISRDNARNTLYLQMSSLKSEDTAMYYCTRRGHYNTSSYWYFDVWGTGTTVTVSS
VL: DIVMTQSPKSMSMSVGERVTLSCKASENVGTYVSWYQQKPEQSPKLLIYGASNRYTGVPDRFTGSGSATDFTLTISSVQAEDLADYHCGQSYSYPPTFGAGTKLELKR
B4: 7475-H1K1-canIgGB (antibody, V domains shown)
VH: EVQLVESGGDLVKPGGSLRLSCVASGFTFSSYAMSWVRQAPGKGLQWVAYISNGGDYIFYADTVKGRFTISRDNARNTLYLQMNSLRSEDTAVYYCTRRGHYNTSSYWYFDVWGQGTLVTVSS
VL: EIVMTQSPASLSLSQEEKVTITCKASENVGTYVSWYQQKPGQAPKLLIYGASNRYTGVPSRFSGSGSGTDFTFTISSLEPEDVAVYYCGQSYSYPPTFGAGTKVELKR
B5: 7475-H2K1-canIgGB (antibody, V domains shown)
VH: B4 VH with V37I, R76K, S88A
VL: B4 VL
B6: 7475-H3K1-canIgGB (antibody, V domains shown)
VH: B4 VH with Y50R, R76K, S88A, V93M
VL: B4 VL
B7: 7475-H1K2-canIgGB (antibody, V domains shown)
VH: B4 VH
VL: B4 VL with G68A, F73L, L78V
B8: 7475-H2K2-canIgGB (antibody, V domains shown)
VH: B4 VH with V37I, R76K, S88A
VL: B4 VL with G68A, F73L, L78V
B9: 7475-H3K2-canIgGB (antibody, V domains shown)
VH: B4 VH with Y50R, R76K, S88A, V93M
VL: B4 VL with G68A, F73L, L78V
B10: 7475-H1K3-canIgGB (antibody, V domains shown)
VH: B4 VH
VL: B4 VL with T72S
B11: 7475-H2K3-canIgGB (antibody, V domains shown)
VH: B4 VH with V37I, R76K, S88A
VL: B4 VL with T72S
B12: 6465-H1K1-canIgGB (antibody, V domains shown)
VH: B2 VH with A49G, R72V, N74K
VL: EIVLTQTPLSLAVTPGELATISCRASESVDSYGNSFMHWYLQKPGQTPRLLIYRASNLESGVSDRFSGSGSRTDFTLKISRVEAEDVGVYYCQQSNEDPYTFGQGTKLEIKR
B13: 7475-H3K3-canIgGB (antibody, V domains shown)
VH: B4 VH with Y50R, R76K, S88A, V93M
VL: B4 VL with T72S
B14: B2-mHvKv-canIgGB (antibody, V domains shown)
VH: EVKLVESGGGLVQPGGSMKLSCAASGFTFSDAWMDWVRQSPERGLEWVAEIRSRAESHATYYAESVKGRFTISRDDSKGSVYLQMNSLGTEDTGIYYCTPASTMITTGWFAYWGQGTMVTVSS
VL: NIVMTQSPAILSVTPGDRVSLSCRASQNISVYLHWYQQKSHDSPRVLIKYVSQSISGIPSRFSGSGSGSDFTLRINSVEPEDVGVYYCQNGHSFPYTFGGGTKLEIKR
B15: B2-H1K1-canIgGB (antibody, V domains shown)
VH: EVQLVESGGDLVKPGGSLRLSCVASGFTFSDAWMDWVRQAPGKGLQWLAEIRSRAESHATYYAESVKGRFTISRDDAKNTVYLQMNSLRAEDTAVYYCTPASTMITTGWFAYWGQGTLVTVSS
VL: EIVMTQTPLSLAVTPGELATISCRASQNISVYLHWYLQKPGQTPRVLIKYVSQSISGVSDRFSGSGSGSDFTLKISRVEAEDVGVYYCQNGHSFPYTFGQGTKLEIKR
B16: B2-H2K1-canIgGB (antibody, V domains shown)
VH: B15 VH with Q46E, L48V, T80M
VL: B15 VL
B17: B2-H3K1-canIgGB (antibody, V domains shown)
VH: B15 VH with L48V
VL: B15 VL
B18: B2-H1K2-canIgGB (antibody, V domains shown)
VH: B15 VH
VL: DIVMTQTPLSLSVSPGETASISCRASQNISVYLHWYRQKPGQSPQVLIKYVSQSISGVPDRFSGSGSGSDFTLRISRVEADDTGVYYCQNGHSFPYTFGQGTKLEIKR
B19: B2-H2K2-canIgGB (antibody, V domains shown)
VH: B15 VH with Q46E, L48V, T80M
VL: B18 VL
B20: B2-H3K2-canIgGB (antibody, V domains shown)
VH: B15 VH with L48V
VL: B18 VL
B21: B2-H1K3-canIgGB (antibody, V domains shown)
VH: B15 VH
VL: B15 VL with A12S, T14S, L37Q, T43A, R45K, S59P, D60S, K74T, R77S
B22: B2-H2K3-canIgGB (antibody, V domains shown)
VH: B15 VH with Q46E, L48V, T80M
VL: B15 VL with A12S, T14S, L37Q, T43A, R45K, S59P, D60S, K74T, R77S
B23: 6465-H2K1-canIgGB (antibody, V domains shown)
VH: B2 VH with E46Q, V48L, A49G, R72V, N74K, M78T
VL: B12 VL
B24: B2-H3K3-canIgGB (antibody, V domains shown)
VH: B15 VH with L48V
VL: B15 VL with A12S, T14S, L37Q, T43A, R45K, S59P, D60S, K74T, R77S
B25: 6465-H3K1-canIgGB (antibody, V domains shown)
VH: B2 VH
VL: B12 VL

molecular target: His-tagged canine IL-31 (interleukin 31) recombinant protein (canine); assay: BLI (Gator), biotinylated antibody on streptavidin probe, canine IL-31 as analyte

Binder	Kd [nM]	koff [s⁻¹]	kon [M⁻¹ s⁻¹]
B1	2.09	0.00106	507000
B2	2.02	0.00164	812000
B3	1.01	0.000251	250000
B4	6.73	0.00156	231000
B5	5.43	0.00055	101000
B6	4.84	0.000542	112000
B7	6.37	0.000614	96500
B8	3.61	0.000481	133000
B9	5.4	0.000539	100000
B10	6.51	0.00192	295000
B11	4.67	0.000759	162000
B12	3.21	0.000979	305000
B13	3.34	0.00204	611000
B14	3.04	0.000243	79900
B15	17.2	0.0013	75600
B16	10	0.000942	93800
B17	10.2	0.00114	112000
B18	13.8	0.00115	82800
B19	9.17	0.000882	96200
B20	1.76	0.000188	107000
B21	16.7	0.0015	89800
B22	1.53	0.000143	93500
B23	3.37	0.00171	508000
B24	3.16	0.000381	121000
B25	5.75	0.00121	211000

molecular target: His-tagged canine IL-31 (interleukin 31) recombinant protein (canine); assay: cell-based or functional assay

Binder	pSTAT IC50 (µg/mL)
B1	7.1
B2	7.2
B3	6.7
B4	8.4
B5	7.9
B6	7.5
B7	8.1
B8	7.1
B9	7.8
B10	8.2
B11	7.2
B12	7.5
B13	6.9
B14	6.8
B15	9.4
B16	8.3
B17	8.5
B18	9.2
B19	7.8
B20	7.2
B21	9.3
B22	7.1
B23	7.3
B24	7.4
B25	7.8
